Measured values as given in patent publication US20260209320A1 (ALCHEMAB THERAPEUTICS, published 2026).

What was measured:
[1] = biological target: T1, Mutant Human HTT Exon 1 48Q (GST) (human); test: ELISA
T1 construct: recombinant His- and GST-tagged fusion; also called HTT Exon 1 Q48; 48Q HTT Exon-1

Peptide 24 [2] = biological target: T2, Peptide 24 (cyno); test: peptide microarray; Sp C2; IgG 10 µg/ml
T2 peptide: QQQQQQQQQPPPPPP

Peptide 3 [3] = biological target: T3, Peptide 3 (human, cyno); test: peptide microarray; Sp C2; IgG 10 µg/ml
T3 peptide: QQQQQQPPPPPPPPP

Peptide 1 [4] = biological target: T4, Peptide 1 (human, cyno); test: peptide microarray; Sp C2; IgG 10 µg/ml
T4 peptide: QQQQQQQQPPPPPPP

Peptide 26 [5] = biological target: T5, Peptide 26 (cyno); test: peptide microarray; Sp C2; IgG 10 µg/ml
T5 construct: the array is said to hold 15-mers
T5 peptide: QPPPPPPPPPPPPQL

Peptide 2 [6] = biological target: T6, Peptide 2 (human, cyno); test: peptide microarray; Sp C2; IgG 10 µg/ml
T6 peptide: QQQQQQQPPPPPPPP

Peptide 29 [7] = biological target: T7, Peptide 29 (cyno); test: peptide microarray; Sp C2; IgG 10 µg/ml
T7 peptide: PMLPQPQPPPPPPPP

Peptide 4 [8] = biological target: T8, Peptide 4 (human, cyno); test: peptide microarray; Sp C2; IgG 10 µg/ml
T8 peptide: QQQQQPPPPPPPPPP

Peptide 9 [9] = biological target: T9, Peptide 9 (human); test: peptide microarray; Sp H; IgG 1 µg/ml
T9 peptide: AQPLLPQPQPPPPPP

Peptide 13 = biological target: T10, Peptide 13 (human); test: peptide microarray; Sp H; IgG 1 µg/ml
T10 peptide: LPQPQPPPPPPPPPP

Peptide 10 = biological target: T11, Peptide 10 (human); test: peptide microarray; Sp H; IgG 1 µg/ml
T11 peptide: QPLLPQPQPPPPPPP

Peptide 12 = biological target: T12, Peptide 12 (human); test: peptide microarray; Sp H; IgG 1 µg/ml
T12 peptide: LLPQPQPPPPPPPPP

Peptide 3 [10] = biological target: T3, Peptide 3; test: peptide microarray; Sp H; IgG 1 µg/ml
Peptide 1 [11] = biological target: T4, Peptide 1; test: peptide microarray; Sp H; IgG 1 µg/ml
Epitope 1 [12] = biological target: T13, Epitope 1 (human, cyno); test: peptide microarray; Sp H; IgG 1 µg/ml
T13 peptide: QQQQPPPPPPPPPPP

Peptide 7 [13] = biological target: T14, Peptide 7 (human); test: peptide microarray; Sp H; IgG 1 µg/ml
T14 peptide: PQAQPLLPQPQPPPP

Peptide 16 = biological target: T15, Peptide 16 (human); test: peptide microarray; Sp H; IgG 1 µg/ml
T15 peptide: PQPPPPPPPPPPGPA

Peptide 2 [14] = biological target: T6, Peptide 2; test: peptide microarray; Sp H; IgG 1 µg/ml
Peptide 17 [15] = biological target: T16, Peptide 17 (human); test: peptide microarray; Sp H; IgG 1 µg/ml
T16 peptide: QPPPPPPPPPPGPAV

Peptide 8 [16] = biological target: T17, Peptide 8 (human); test: peptide microarray; Sp H; IgG 1 µg/ml
T17 peptide: QAQPLLPQPQPPPPP

Peptide 4 [17] = biological target: T8, Peptide 4; test: peptide microarray; Sp H; IgG 1 µg/ml
Peptide 11 = biological target: T18, Peptide 11 (human); test: peptide microarray; Sp H; IgG 1 µg/ml
T18 peptide: PLLPQPQPPPPPPPP

Peptide 25 = biological target: T19, Peptide 25 (cyno); test: peptide microarray; Sp C2; IgG 1 µg/ml
T19 peptide: QQPPPPPPPPPPPPQ

Peptide 24 [18] = biological target: T2, Peptide 24; test: peptide microarray; Sp C2; IgG 1 µg/ml
Peptide 3 [19] = biological target: T3, Peptide 3; test: peptide microarray; Sp C2; IgG 1 µg/ml
Peptide 18 = biological target: T20, Peptide 18 (cyno); test: peptide microarray; Sp C2; IgG 1 µg/ml
T20 peptide: QQQPPPPPPPPPPPP

Peptide 1 [20] = biological target: T4, Peptide 1; test: peptide microarray; Sp C2; IgG 1 µg/ml
Epitope 1 [21] = biological target: T13, Epitope 1; test: peptide microarray; Sp C2; IgG 1 µg/ml
Peptide 31 = biological target: T21, Peptide 31 (cyno); test: peptide microarray; Sp C2; IgG 1 µg/ml
T21 peptide: LPQPQPPPPPPPPPP

Peptide 26 [22] = biological target: T5, Peptide 26; test: peptide microarray; Sp C2; IgG 1 µg/ml
Peptide 21 = biological target: T22, Peptide 21 (cyno); test: peptide microarray; Sp C2; IgG 1 µg/ml
T22 peptide: AQPMLPQPQPPPPPP

Peptide 2 [23] = biological target: T6, Peptide 2; test: peptide microarray; Sp C2; IgG 1 µg/ml
Peptide 28 = biological target: T23, Peptide 28 (cyno); test: peptide microarray; Sp C2; IgG 1 µg/ml
T23 peptide: QPMLPQPQPPPPPPP

Peptide 30 = biological target: T24, Peptide 30 (cyno); test: peptide microarray; Sp C2; IgG 1 µg/ml
T24 peptide: MLPQPQPPPPPPPPP

Peptide 29 [24] = biological target: T7, Peptide 29; test: peptide microarray; Sp C2; IgG 1 µg/ml
Peptide 4 [25] = biological target: T8, Peptide 4; test: peptide microarray; Sp C2; IgG 1 µg/ml
Peptide 9 [26] = biological target: T9, Peptide 9; test: peptide microarray; Sp H; IgG 10 µg/ml
Peptide 7 [27] = biological target: T14, Peptide 7; test: peptide microarray; Sp H; IgG 10 µg/ml
Peptide 17 [28] = biological target: T16, Peptide 17; test: peptide microarray; Sp H; IgG 10 µg/ml
Peptide 8 [29] = biological target: T17, Peptide 8; test: peptide microarray; Sp H; IgG 10 µg/ml
Peptide 4 [30] = biological target: T8, Peptide 4; test: peptide microarray; Sp H; IgG 10 µg/ml

T1 sequence (chain, as listed by the source mutant limits assumed): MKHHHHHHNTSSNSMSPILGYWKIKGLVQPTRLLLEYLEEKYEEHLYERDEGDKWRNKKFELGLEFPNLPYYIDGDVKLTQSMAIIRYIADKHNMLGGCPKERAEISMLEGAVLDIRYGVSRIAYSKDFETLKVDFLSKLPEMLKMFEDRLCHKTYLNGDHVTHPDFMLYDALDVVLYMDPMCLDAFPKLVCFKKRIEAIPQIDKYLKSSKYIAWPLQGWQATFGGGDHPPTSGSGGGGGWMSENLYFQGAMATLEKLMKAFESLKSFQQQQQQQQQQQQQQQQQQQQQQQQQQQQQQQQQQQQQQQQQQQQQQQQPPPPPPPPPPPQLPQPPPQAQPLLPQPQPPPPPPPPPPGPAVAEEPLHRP

B1: ATL_0005335 (antibody, V domains shown)
VH: EVQLVESGGGLVKPGGSLRLSCAASGFTFNKAWMNWVRQAPGKGLEWVGRIKSGIDGGTTDYAAPVQGRFTISRDDSKNTVYLQMNSLNTEDTAVYYCIPPPYYYYYGLDVWGQGTTVTVSS
VL: QSALTQPASVSGSPGQSITISCTGTSSDIGSYNLVSWYQQHPGNAPKPLIYEGSKRPSGVSARFSGSKSGNTASLTISGLQPEDEADYYCSSYAGFNTLVFGGGTKVTVL
notes: human IgG1; also called ATL_5335
binding result [1]: binds
corrected fluorescence intensity (Peptide 24 [2]): 3260
corrected fluorescence intensity (Peptide 3 [3]): 9510
corrected fluorescence intensity (Peptide 1 [4]): 7010
corrected fluorescence intensity (Peptide 26 [5]): 1910
corrected fluorescence intensity (Peptide 2 [6]): 8870
corrected fluorescence intensity (Peptide 29 [7]): 4680
corrected fluorescence intensity (Peptide 4 [8]): 10000
corrected fluorescence intensity (Peptide 9 [9]): 622
corrected fluorescence intensity (Peptide 13): 1130
corrected fluorescence intensity (Peptide 10): 845
corrected fluorescence intensity (Peptide 12): 932
corrected fluorescence intensity (Peptide 3 [10]): 626
corrected fluorescence intensity (Peptide 1 [11]): 0
corrected fluorescence intensity (Epitope 1 [12]): 293
corrected fluorescence intensity (Peptide 7 [13]): 0
corrected fluorescence intensity (Peptide 16): 77.5
corrected fluorescence intensity (Peptide 2 [14]): 417
corrected fluorescence intensity (Peptide 17 [15]): 0
corrected fluorescence intensity (Peptide 8 [16]): 434
corrected fluorescence intensity (Peptide 4 [17]): 409
corrected fluorescence intensity (Peptide 11): 936
corrected fluorescence intensity (Peptide 25): 507
corrected fluorescence intensity (Peptide 24 [18]): 562
corrected fluorescence intensity (Peptide 3 [19]): 1220
corrected fluorescence intensity (Peptide 18): 1270
corrected fluorescence intensity (Peptide 1 [20]): 990
corrected fluorescence intensity (Epitope 1 [21]): 1400
corrected fluorescence intensity (Peptide 31): 1000
corrected fluorescence intensity (Peptide 26 [22]): 128
corrected fluorescence intensity (Peptide 21): 168
corrected fluorescence intensity (Peptide 2 [23]): 1160
corrected fluorescence intensity (Peptide 28): 421
corrected fluorescence intensity (Peptide 30): 772
corrected fluorescence intensity (Peptide 29 [24]): 523
corrected fluorescence intensity (Peptide 4 [25]): 1110
corrected fluorescence intensity (Peptide 9 [26]): 3470
corrected fluorescence intensity (Peptide 7 [27]): 326
corrected fluorescence intensity (Peptide 17 [28]): 166
corrected fluorescence intensity (Peptide 8 [29]): 1510
corrected fluorescence intensity (Peptide 4 [30]): 3680

B2: ATL_0005331 (antibody, V domains shown)
VH: B1 VH
VL: QSALTQPRSVSGSPGQSITISCTGTSSDVGSYNLVSWFQQHPGKAPKLIIYEVNKRPSGVPDRFSGSKSGNTASLTVSGLQAEDEADYYCGSYAGTNNVFGTGTKLTVL
notes: human IgG1; also called ATL_5331; Human IgG1 ATL_0005331
binding result [1]: binds
corrected fluorescence intensity (Peptide 24 [2]): 994
corrected fluorescence intensity (Peptide 3 [3]): 4830
corrected fluorescence intensity (Peptide 1 [4]): 2700
corrected fluorescence intensity (Peptide 26 [5]): 1040
corrected fluorescence intensity (Peptide 2 [6]): 4070
corrected fluorescence intensity (Peptide 29 [7]): 2170
corrected fluorescence intensity (Peptide 4 [8]): 4870
corrected fluorescence intensity (Peptide 9 [9]): 229
corrected fluorescence intensity (Peptide 13): 373
corrected fluorescence intensity (Peptide 10): 274
corrected fluorescence intensity (Peptide 12): 374
corrected fluorescence intensity (Peptide 3 [10]): 276
corrected fluorescence intensity (Peptide 1 [11]): 131
corrected fluorescence intensity (Epitope 1 [12]): 291
corrected fluorescence intensity (Peptide 7 [13]): 0
corrected fluorescence intensity (Peptide 16): 90.2
corrected fluorescence intensity (Peptide 2 [14]): 197
corrected fluorescence intensity (Peptide 17 [15]): 85.5
corrected fluorescence intensity (Peptide 8 [16]): 260
corrected fluorescence intensity (Peptide 4 [17]): 238
corrected fluorescence intensity (Peptide 11): 280
corrected fluorescence intensity (Peptide 25): 206
corrected fluorescence intensity (Peptide 24 [18]): 146
corrected fluorescence intensity (Peptide 3 [19]): 548
corrected fluorescence intensity (Peptide 18): 474
corrected fluorescence intensity (Peptide 1 [20]): 259
corrected fluorescence intensity (Epitope 1 [21]): 379
corrected fluorescence intensity (Peptide 31): 294
corrected fluorescence intensity (Peptide 26 [22]): 141
corrected fluorescence intensity (Peptide 21): 154
corrected fluorescence intensity (Peptide 2 [23]): 462
corrected fluorescence intensity (Peptide 28): 152
corrected fluorescence intensity (Peptide 30): 256
corrected fluorescence intensity (Peptide 29 [24]): 156
corrected fluorescence intensity (Peptide 4 [25]): 546
corrected fluorescence intensity (Peptide 9 [26]): 1260
corrected fluorescence intensity (Peptide 7 [27]): 119
corrected fluorescence intensity (Peptide 17 [28]): 16.2
corrected fluorescence intensity (Peptide 8 [29]): 1140
corrected fluorescence intensity (Peptide 4 [30]): 2620
